This is an account of results in publication PMC6456427.

Assay in all cases: SEC
A general note: Size exclusion chromatography separates by hydrodynamic size, large species first.

Assay [1] concerns the target Flavobacterium johnsoniae class Id ribonucleotide reductase α subunit (Flavobacterium johnsoniae).
The target in assay [2] is Actinobacillus ureae class Id ribonucleotide reductase α subunit (Actinobacillus ureae).
For assay [3] the target is unchanged. This is another data set of the same source.

Read-outs that look alike come from different tables or passages of the source.

As to “Flavobacterium johnsoniae class Id ribonucleotide reductase α subunit (enzyme)”, the stoichiometry N in assay [1] was found to be 2.

Regarding “Actinobacillus ureae class Id ribonucleotide reductase α subunit (enzyme)”, the stoichiometry N in assay [2] and in assay [3] was 2 each time.

A word on the stoichiometry N: it is the number of molecules, sites or subunits per partner or assembly.
